Results as given in patent US20030223964A1.

Target: FITC-labeled CD4 (UniProt P01730)
Assay: size exclusion HPLC (Biosil 250) after incubation with FITC-labeled CD4; free CD4-FITC elutes at 2.67 minutes

Question: How did the retention time of the complex on size exclusion HPLC turn out when “oligomeric gp140 US4 (o-gp140 US4), purified from CHO cell supernatant” was run?
Answer: The retention time of the complex on size exclusion HPLC was 1.9 min.

Question: How did the retention time of the complex on size exclusion HPLC turn out when “US4 gp120, purified from CHO cell supernatant” was run?
Answer: Its retention time of the complex on size exclusion HPLC is 2.17 min.
